Series [1] has as its target T1, CPSF-160;WDR33;CPSF-30;Fip1 (human;human;human;human, UniProt Q10570;Q9C0J8;O95639;Q6UN15 1-1443;1-425;1-269;159-200, |||). The series can be described thus: competition fluorescence polarization. Background: Polarisation of emitted light reports the rotation of a fluorescent probe.
Target sequence in this assay (Q10570 whole entry, chain 1 of 4, one chain of several): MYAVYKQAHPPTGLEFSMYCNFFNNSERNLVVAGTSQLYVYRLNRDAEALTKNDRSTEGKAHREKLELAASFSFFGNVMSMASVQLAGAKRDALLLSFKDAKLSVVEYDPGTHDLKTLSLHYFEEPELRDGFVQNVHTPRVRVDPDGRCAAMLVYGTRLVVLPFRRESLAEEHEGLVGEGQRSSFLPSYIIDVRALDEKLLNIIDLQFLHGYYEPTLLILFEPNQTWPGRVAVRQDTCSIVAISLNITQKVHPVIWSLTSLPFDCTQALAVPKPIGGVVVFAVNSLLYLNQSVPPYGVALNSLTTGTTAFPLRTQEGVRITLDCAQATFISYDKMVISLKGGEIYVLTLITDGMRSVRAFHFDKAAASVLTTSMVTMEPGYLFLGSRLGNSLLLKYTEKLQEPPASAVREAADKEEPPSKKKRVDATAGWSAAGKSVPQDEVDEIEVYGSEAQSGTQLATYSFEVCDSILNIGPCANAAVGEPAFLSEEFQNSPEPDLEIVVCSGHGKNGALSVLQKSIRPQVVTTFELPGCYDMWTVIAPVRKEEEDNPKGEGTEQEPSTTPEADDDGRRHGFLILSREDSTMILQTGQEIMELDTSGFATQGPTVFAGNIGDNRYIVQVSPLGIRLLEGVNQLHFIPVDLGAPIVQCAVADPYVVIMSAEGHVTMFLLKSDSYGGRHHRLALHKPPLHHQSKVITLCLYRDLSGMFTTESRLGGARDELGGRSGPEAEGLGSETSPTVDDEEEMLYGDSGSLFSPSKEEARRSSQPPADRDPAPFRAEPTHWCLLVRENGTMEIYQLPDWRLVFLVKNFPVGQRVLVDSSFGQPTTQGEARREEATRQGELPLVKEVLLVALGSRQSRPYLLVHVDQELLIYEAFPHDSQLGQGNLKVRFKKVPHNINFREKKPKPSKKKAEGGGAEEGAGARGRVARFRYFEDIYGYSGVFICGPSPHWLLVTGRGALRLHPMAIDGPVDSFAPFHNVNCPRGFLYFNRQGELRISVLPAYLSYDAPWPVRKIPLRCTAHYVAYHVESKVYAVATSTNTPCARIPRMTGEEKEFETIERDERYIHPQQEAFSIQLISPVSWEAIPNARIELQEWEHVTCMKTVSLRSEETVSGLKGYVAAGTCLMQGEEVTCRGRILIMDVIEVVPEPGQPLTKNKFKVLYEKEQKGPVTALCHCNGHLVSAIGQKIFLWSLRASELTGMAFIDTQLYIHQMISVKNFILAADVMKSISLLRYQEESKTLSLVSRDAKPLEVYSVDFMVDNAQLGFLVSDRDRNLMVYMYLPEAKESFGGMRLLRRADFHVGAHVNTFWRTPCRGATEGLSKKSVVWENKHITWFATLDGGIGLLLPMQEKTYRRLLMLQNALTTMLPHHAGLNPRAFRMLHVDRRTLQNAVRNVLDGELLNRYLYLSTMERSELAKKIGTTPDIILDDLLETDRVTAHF
Target sequence in this assay (Q9C0J8 1-425, chain 2 of 4, one chain of several): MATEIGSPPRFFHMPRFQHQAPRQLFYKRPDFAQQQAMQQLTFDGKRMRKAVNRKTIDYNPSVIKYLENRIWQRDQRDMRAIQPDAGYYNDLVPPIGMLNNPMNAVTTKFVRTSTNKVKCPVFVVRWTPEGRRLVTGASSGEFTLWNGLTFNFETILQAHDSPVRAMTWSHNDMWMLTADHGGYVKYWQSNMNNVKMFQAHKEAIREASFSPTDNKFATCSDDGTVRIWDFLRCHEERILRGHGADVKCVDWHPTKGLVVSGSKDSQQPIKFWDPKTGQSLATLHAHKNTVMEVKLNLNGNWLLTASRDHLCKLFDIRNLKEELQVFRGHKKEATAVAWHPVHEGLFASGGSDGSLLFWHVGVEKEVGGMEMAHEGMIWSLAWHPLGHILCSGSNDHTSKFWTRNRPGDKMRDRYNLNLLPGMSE
Target sequence in this assay (O95639 whole entry, chain 3 of 4, one chain of several): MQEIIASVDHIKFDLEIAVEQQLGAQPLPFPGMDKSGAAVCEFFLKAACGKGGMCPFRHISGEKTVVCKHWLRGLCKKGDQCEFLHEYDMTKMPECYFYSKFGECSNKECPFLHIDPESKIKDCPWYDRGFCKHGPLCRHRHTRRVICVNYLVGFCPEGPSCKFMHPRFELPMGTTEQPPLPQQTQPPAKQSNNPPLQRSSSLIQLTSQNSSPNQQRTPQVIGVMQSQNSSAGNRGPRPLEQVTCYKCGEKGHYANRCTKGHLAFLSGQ
The target in the next series is T2, Fip1 (human, UniProt Q6UN15 159-200).
T2 chain: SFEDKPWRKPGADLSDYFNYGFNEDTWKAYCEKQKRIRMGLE
The series can be described thus: fluorescence polarization.

Series [2] addresses T1, CPSF-160;WDR33;CPSF-30;Fip1. The series can be described thus: fluorescence polarization.
Target sequence in this assay (Q10570 whole entry, chain 1 of 4, one chain of several): as the sequence (Q10570 whole entry, chain 1 of 4, one chain of several) above
Target sequence in this assay (Q9C0J8 1-425, chain 2 of 4, one chain of several): as the sequence (Q9C0J8 1-425, chain 2 of 4, one chain of several) above
Target sequence in this assay (O95639 whole entry, chain 3 of 4, one chain of several): as the sequence (O95639 whole entry, chain 3 of 4, one chain of several) above
Series [3] has the same target. In words: fluorescence polarization. The source holds these as a separate data set.
Target sequence in this assay (Q10570 whole entry, chain 1 of 4, one chain of several): as the sequence (Q10570 whole entry, chain 1 of 4, one chain of several) above
Target sequence in this assay (Q9C0J8 1-425, chain 2 of 4, one chain of several): as the sequence (Q9C0J8 1-425, chain 2 of 4, one chain of several) above
Target sequence in this assay (O95639 whole entry, chain 3 of 4, one chain of several): as the sequence (O95639 whole entry, chain 3 of 4, one chain of several) above
A further series deals with CPSF-160;WDR33;CPSF-30 (human;human;human, UniProt Q10570;Q9C0J8;O95639 1-1443;1-425;1-269, ||). The series can be described thus: fluorescence polarization.
For series [4], the target named is CPSF-160;WDR33;CPSF-30 F112A;Fip1 (human;human;human;human, UniProt Q10570;Q9C0J8;O95639;Q6UN15 1-1443;1-425;1-269;159-200, ||F112A|). The series can be described thus: fluorescence polarization.
Series [5] addresses CPSF-160;WDR33;CPSF-30 H70A;Fip1 (human;human;human;human, UniProt Q10570;Q9C0J8;O95639;Q6UN15 1-1443;1-425;1-269;159-200, ||H70A|). In words: fluorescence polarization.
The target in series [6] is CPSF-160;WDR33;CPSF-30 R73A;Fip1 (human;human;human;human, UniProt Q10570;Q9C0J8;O95639;Q6UN15 1-1443;1-425;1-269;159-200, ||R73A|). In words: fluorescence polarization.
Series [7] concerns the target CPSF-160;WDR33;CPSF-30 F84A;Fip1 (human;human;human;human, UniProt Q10570;Q9C0J8;O95639;Q6UN15 1-1443;1-425;1-269;159-200, ||F84A|). In words: fluorescence polarization.
Series [8] addresses T1, CPSF-160;WDR33;CPSF-30;Fip1. In words: fluorescence polarization. The source holds these as a separate data set.
Target sequence in this assay (Q10570 whole entry, chain 1 of 3): as the sequence (Q10570 whole entry, chain 1 of 4, one chain of several) above
Target sequence in this assay (Q9C0J8 1-425, chain 2 of 3): as the sequence (Q9C0J8 1-425, chain 2 of 4, one chain of several) above
Target sequence in this assay (O95639 whole entry, chain 3 of 3): as the sequence (O95639 whole entry, chain 3 of 4, one chain of several) above
The target is the same in series [9]. In words: competition fluorescence polarization. The source holds these as a separate data set.
Target sequence in this assay (Q10570 whole entry, chain 1 of 3): as the sequence (Q10570 whole entry, chain 1 of 4, one chain of several) above
Target sequence in this assay (Q9C0J8 1-425, chain 2 of 3): as the sequence (Q9C0J8 1-425, chain 2 of 4, one chain of several) above
Target sequence in this assay (O95639 whole entry, chain 3 of 3): as the sequence (O95639 whole entry, chain 3 of 4, one chain of several) above

By Kd is commonly meant the equilibrium constant for the complex coming apart. Low readings indicate higher affinity, high ones lower affinity. For the molecule CAAUAAAC (ssRNA) [8-mer AAUAAA, unlabeled], the Kd in series [1] worked out at 57 ± 18 nM.
Turning to AACCUCCAAUAAACAAC (ssRNA) [17-mer AAUAAA PAS], the binding result with Fip1 is listed as “no binding”. Also, the equilibrium dissociation constant (Kd) in series [2] turned out to be 0.28 ± 0.07 nM; in series [3], 0.19 ± 0.03 nM; with CPSF-160;WDR33;CPSF-30, 0.25 ± 0.05 nM. Also, the binding signal was 140 fold higher Kd than wild type in series [4]; 90 fold higher Kd than wild type in series [5]; 17 fold higher Kd than wild type in series [6]; 8 fold higher Kd than wild type in series [7]; 3 fold higher Kd than maximal binding in [8].
Take AAUAAA (ssRNA, 3' phosphate linking the FAM) [6-mer AAUAAA, FAM]: in series [2], the Kd turned out to be 8.05 ± 0.45 nM.
The molecule CAAUAAACAAC (ssRNA) [11-mer AAUAAA PAS, FAM] yielded a Kd in [2] of 0.32 ± 0.04 nM.
With AAUAAAC (ssRNA) [7-mer AAUAAAC, unlabeled], in [9], the binding signal is 35 fold higher Kd than 11-mer.

Values taken from publication PMC6859858.
